Test results reported in patent US20230293638A1 (Eli Lilly, published 2023).
Numbering of substitutions follows the chain as printed. Numbered stars: 1 amine (or outer) side, 2 acyl side, 3 side chain; on linkers, the order of the positions; unused ones are H or OH. Square brackets hold non-standard residues; d marks the D form. Side chains are listed from the residue outwards. Ends that are not written are not given here. * marks the point of attachment. C20 diacid = O=C(O)CCCCCCCCCCCCCCCCCCC(=O)*; αMePhe(2-F) = C[C@](N)(Cc1ccccc1F)C(=O)O; γGlu = O=C(O)[C@H](CCC(=O)[*:2])N[*:1]; αMeF = C[C@](N)(Cc1ccccc1)C(=O)O; αMeL = CC(C)C[C@](C)(N)C(=O)O; cTA = not defined here; AEEA = NCCOCCOCC(=O)O; Aib = CC(C)(N)C(=O)O

B1: Peptide 123 (peptide)
peptide: YXEGTXTSDYSIXLDKKAQXEFIEYLIEGGPSSG
modifications: Aib2; αMeF6; αMeL13; K17((2-[2-(2-Amino-ethoxy)-ethoxy]-acetyl)2-(γGlu)-CO-(CH2)18-CO2H); Aib20; C-terminal NH2
B2: Peptide 115 (peptide)
peptide: YXEGTXTSDYSIXLDEKAQXAFIEYLIEGGPSSGAPPPS
modifications: Aib2; αMeF6; αMeL13; K17((2-[2-(2-Amino-ethoxy)-ethoxy]-acetyl)2-(γGlu)-CO-(CH2)18-CO2H); Aib20; C-terminal NH2
B3: Peptide 137 (peptide)
peptide: B2 peptide with E16K, A21X
modifications: Aib2; αMeF6; αMeL13; K17((2-[2-(2-Amino-ethoxy)-ethoxy]-acetyl)2-(γGlu)-CO-(CH2)18-CO2H); Aib20; Aad21; C-terminal NH2
B4: Peptide 157 (peptide)
peptide: B2 peptide with Y10X, A21E
modifications: Aib2; αMeF(2F)6; 3Pal10; αMeL13; K17((2-[2-(2-Amino-ethoxy)-ethoxy]-acetyl)2-(γGlu)-CO-(CH2)18-CO2H); Aib20; C-terminal NH2
B5: Peptide 153 (peptide)
peptide: B2 peptide with A21E, E24H
modifications: Aib2; αMeF(2F)6; αMeL13; K17((2-[2-(2-Amino-ethoxy)-ethoxy]-acetyl)2-(γGlu)-CO-(CH2)18-CO2H); Aib20; C-terminal NH2
B6: Peptide 152 (peptide)
peptide: B2 peptide with A21E, E24X
modifications: Aib2; αMeF(2F)6; αMeL13; K17((2-[2-(2-Amino-ethoxy)-ethoxy]-acetyl)2-(γGlu)-CO-(CH2)18-CO2H); Aib20; Aib24; C-terminal NH2
B7: Peptide 147 (peptide)
peptide: B2 peptide with A21E, E24X
modifications: Aib2; αMeF(2F)6; αMeL13; K17((2-[2-(2-Amino-ethoxy)-ethoxy]-acetyl)2-(γGlu)-CO-(CH2)18-CO2H); Aib20; Aad24; C-terminal NH2
B8: Peptide 126 (peptide)
peptide: B2 peptide with E16K, G29A
modifications: Aib2; αMeF6; αMeL13; K17((2-[2-(2-Amino-ethoxy)-ethoxy]-acetyl)2-(γGlu)-CO-(CH2)18-CO2H); Aib20; C-terminal NH2
B9: Peptide 129 (peptide)
peptide: B2 peptide with Y10L, X13L, E16K
modifications: Aib2; αMeF6; K17((2-[2-(2-Amino-ethoxy)-ethoxy]-acetyl)2-(γGlu)-CO-(CH2)18-CO2H); Aib20; C-terminal NH2
B10: Peptide 139 (peptide)
peptide: B2 peptide with E16K, A21T
modifications: Aib2; αMeF6; αMeL13; K17((2-[2-(2-Amino-ethoxy)-ethoxy]-acetyl)2-(γGlu)-CO-(CH2)18-CO2H); Aib20; C-terminal NH2
B11: Peptide 149 (peptide)
peptide: B2 peptide with A21E, E24V
modifications: Aib2; αMeF(2F)6; αMeL13; K17((2-[2-(2-Amino-ethoxy)-ethoxy]-acetyl)2-(γGlu)-CO-(CH2)18-CO2H); Aib20; C-terminal NH2
B12: Peptide 128 (peptide)
peptide: B2 peptide with Y10H, X13L, E16K
modifications: Aib2; αMeF6; K17((2-[2-(2-Amino-ethoxy)-ethoxy]-acetyl)2-(γGlu)-CO-(CH2)18-CO2H); Aib20; C-terminal NH2
B13: Peptide 150 (peptide)
peptide: B2 peptide with A21E, E24S
modifications: Aib2; αMeF(2F)6; αMeL13; K17((2-[2-(2-Amino-ethoxy)-ethoxy]-acetyl)2-(γGlu)-CO-(CH2)18-CO2H); Aib20; C-terminal NH2
B14: Peptide 144 (peptide)
peptide: B2 peptide with E16K, X20H, A21X
modifications: Aib2; αMeF6; αMeL13; K17((2-[2-(2-Amino-ethoxy)-ethoxy]-acetyl)2-(γGlu)-CO-(CH2)18-CO2H); Aib21; C-terminal NH2
B15: Peptide 125 (peptide)
peptide: B2 peptide with E16K
modifications: Aib2; αMeF6; αMeL13; K17((2-[2-(2-Amino-ethoxy)-ethoxy]-acetyl)2-(γGlu)2-CO-(CH2)18-CO2H); Aib20; C-terminal NH2
B16: Peptide 151 (peptide)
peptide: B2 peptide with A21E, E24P
modifications: Aib2; αMeF(2F)6; αMeL13; K17((2-[2-(2-Amino-ethoxy)-ethoxy]-acetyl)2-(γGlu)-CO-(CH2)18-CO2H); Aib20; C-terminal NH2
B17: Peptide 118 (peptide)
peptide: B2 peptide with A21E
modifications: Aib2; αMeF(2F)6; αMeL13; K17((2-[2-(2-Amino-ethoxy)-ethoxy]-acetyl)2-(γGlu)-CO-(CH2)18-CO2H); Aib20; C-terminal NH2
B18: Peptide 155 (peptide)
peptide: B2 peptide with Y10X, A21E
modifications: Aib2; αMeF(2F)6; cTA10; αMeL13; K17((2-[2-(2-Amino-ethoxy)-ethoxy]-acetyl)2-(γGlu)-CO-(CH2)18-CO2H); Aib20; C-terminal NH2
B19: Peptide 143 (peptide)
peptide: B2 peptide with E16K, A21X
modifications: Aib2; αMeF6; αMeL13; K17((2-[2-(2-Amino-ethoxy)-ethoxy]-acetyl)2-(γGlu)-CO-(CH2)18-CO2H); Aib20; Aib21; C-terminal NH2
B20: Peptide 20 (peptide)
peptide: B2 peptide with X6F, E16K
modifications: Aib2; αMeL13; K17((2-[2-(2-Amino-ethoxy)-ethoxy]-acetyl)2-(γGlu)-CO-(CH2)18-CO2H); Aib20; C-terminal NH2
B21: Peptide 140 (peptide)
peptide: B2 peptide with E16K, A21D
modifications: Aib2; αMeF6; αMeL13; K17((2-[2-(2-Amino-ethoxy)-ethoxy]-acetyl)2-(γGlu)-CO-(CH2)18-CO2H); Aib20; C-terminal NH2
B22: Peptide 148 (peptide)
peptide: B2 peptide with A21E, E24A
modifications: Aib2; αMeF(2F)6; αMeL13; K17((2-[2-(2-Amino-ethoxy)-ethoxy]-acetyl)2-(γGlu)-CO-(CH2)18-CO2H); Aib20; C-terminal NH2
B23: Peptide 154 (peptide)
peptide: Y[Aib]EGT[αMePhe(2-F)]TSDHSI[αMeL]LDEK([AEEA-AEEA-γGlu-C20 diacid])AQ[Aib]EFIEYLIEGGPSSGAPPPS-NH2
modifications: N-terminus assumed
SMILES: CC[C@H](C)[C@H](NC(=O)[C@H](CC(C)C)NC(=O)[C@H](Cc1ccc(O)cc1)NC(=O)[C@H](CCC(=O)O)NC(=O)[C@@H](NC(=O)[C@H](Cc1ccccc1)NC(=O)[C@H](CCC(=O)O)NC(=O)C(C)(C)NC(=O)[C@H](CCC(N)=O)NC(=O)[C@H](C)NC(=O)[C@H](CCCCNC(=O)COCCOCCNC(=O)COCCOCCNC(=O)CC[C@H](NC(=O)CCCCCCCCCCCCCCCCCCC(=O)O)C(=O)O)NC(=O)[C@H](CCC(=O)O)NC(=O)[C@H](CC(=O)O)NC(=O)[C@H](CC(C)C)NC(=O)[C@](C)(CC(C)C)NC(=O)[C@@H](NC(=O)[C@H](CO)NC(=O)[C@H](Cc1c[nH]cn1)NC(=O)[C@H](CC(=O)O)NC(=O)[C@H](CO)NC(=O)[C@@H](NC(=O)[C@](C)(Cc1ccccc1F)NC(=O)[C@@H](NC(=O)CNC(=O)[C@H](CCC(=O)O)NC(=O)C(C)(C)NC(=O)[C@@H](N)Cc1ccc(O)cc1)[C@@H](C)O)[C@@H](C)O)[C@@H](C)CC)[C@@H](C)CC)C(=O)N[C@@H](CCC(=O)O)C(=O)NCC(=O)NCC(=O)N1CCC[C@H]1C(=O)N[C@@H](CO)C(=O)N[C@@H](CO)C(=O)NCC(=O)N[C@@H](C)C(=O)N1CCC[C@H]1C(=O)N1CCC[C@H]1C(=O)N1CCC[C@H]1C(=O)N[C@@H](CO)C(N)=O
B24: Peptide 9 (peptide)
peptide: Y[Aib]EGTFTSDYSILLDSK([AEEA-AEEA-γGlu-C20 diacid])AQ[Aib]AFIEYLIEGGPSSGAPPPS-NH2
modifications: N-terminus assumed
SMILES: CC[C@H](C)[C@H](NC(=O)[C@H](CC(C)C)NC(=O)[C@H](Cc1ccc(O)cc1)NC(=O)[C@H](CCC(=O)O)NC(=O)[C@@H](NC(=O)[C@H](Cc1ccccc1)NC(=O)[C@H](C)NC(=O)C(C)(C)NC(=O)[C@H](CCC(N)=O)NC(=O)[C@H](C)NC(=O)[C@H](CCCCNC(=O)COCCOCCNC(=O)COCCOCCNC(=O)CC[C@H](NC(=O)CCCCCCCCCCCCCCCCCCC(=O)O)C(=O)O)NC(=O)[C@H](CO)NC(=O)[C@H](CC(=O)O)NC(=O)[C@H](CC(C)C)NC(=O)[C@H](CC(C)C)NC(=O)[C@@H](NC(=O)[C@H](CO)NC(=O)[C@H](Cc1ccc(O)cc1)NC(=O)[C@H](CC(=O)O)NC(=O)[C@H](CO)NC(=O)[C@@H](NC(=O)[C@H](Cc1ccccc1)NC(=O)[C@@H](NC(=O)CNC(=O)[C@H](CCC(=O)O)NC(=O)C(C)(C)NC(=O)[C@@H](N)Cc1ccc(O)cc1)[C@@H](C)O)[C@@H](C)O)[C@@H](C)CC)[C@@H](C)CC)C(=O)N[C@@H](CCC(=O)O)C(=O)NCC(=O)NCC(=O)N1CCC[C@H]1C(=O)N[C@@H](CO)C(=O)N[C@@H](CO)C(=O)NCC(=O)N[C@@H](C)C(=O)N1CCC[C@H]1C(=O)N1CCC[C@H]1C(=O)N1CCC[C@H]1C(=O)N[C@@H](CO)C(N)=O

Biological target: human GLP-1 receptor (human, UniProt P43220 24-463)
Assay: cell-based or functional assay

Binder | hGLPIR cAMP EC50 ratio
B1 | 1.58
B2 | 0.743
B3 | 1.25
B4 | 1.25
B5 | 0.501
B6 | 0.484
B7 | 1.13
B8 | 0.869
B9 | 0.543
B10 | 1.13
B11 | 0.484
B12 | 0.7
B13 | 0.79
B14 | 0.851
B15 | 1.31
B16 | 0.0278
B17 | 1.13
B18 | 0.0978
B19 | 0.714
B20 | 0.577
B21 | 1.16
B22 | 0.859
B23 | 1.23
Y[Aib][cTA]GT[αMeF]TSDYSI[αMeL]LDEK([AEEA-AEEA-γGlu-C20 diacid])AQ[Aib]AFIEYLIEGGPSSGAPPPS-NH2 (reading uncertain) [Peptide 120] | 0.319
B24 | 0.314
